Test results taken from paper PMC4047914 (Cell Death & Disease, 2014).
“And” between values parts separate entries of the source, which are not always exact repeats. Identical values can stand only once.

Tests used:
[1] = target: the molecule itself
[2] = target: human ErbB2 stably overexpressed in CHO-K1 cells (CHO-K1/ErbB2 cells, pcDNA3-ERBB2) (human, UniProt P04626 23-1255); assay: cross-linking
[3] = target: ErbB2/delD2 (human ErbB2 lacking ECD subdomain D2) (human) (UniProt P04626); assay: ELISA
[4] = target: ErbB2/delD4 (human ErbB2 lacking ECD subdomain D4) (human) (UniProt P04626); assay: ELISA
[5] = target: human ErbB2, wild type, transiently overexpressed in CHO-K1 cells from pCMV6-XL5-ERBB2 (human, UniProt P04626 23-1255); assay: ELISA

B1: Recombinant human prolidase (PEPD), wild type (enzyme)
chain: MAAATGPSFWLGNETLKVPLALFALNRQRLCERLRKNPAVQAGSIVVLQGGEETQRYCTDTGVLFRQESFFHWAFGVTEPGCYGVIDVDTGKSTLFVPRLPASHATWMGKIHSKEHFKEKYAVDDVQYVDEIASVLTSQKPSVLLTLRGVNTDSGSVCREASFDGISKFEVNNTILHPEIVECRVFKTDMELEVLRYTNKISSEAHREVMKAVKVGMKEYELESLFEHYCYSRGGMRHSSYTCICGSGENSAVLHYGHAGAPNDRTIQNGDMCLFDMGGEYYCFASDITCSFPANGKFTADQKAVYEAVLRSSRAVMGAMKPGVWWPDMHRLADRIHLEELAHMGILSGSVDAMVQAHLGAVFMPHGLGHFLGIDVHDVGGYPEGVERIDEPGLRSLRTARHLQPGMVLTVEPGIYFIDHLLDEALADPARASFLNREVLQRFRGFGGVRIEEDVVVTDSGIELLTCVPRTVEEIEACMAGCDKAFTPFSGPK
- stoichiometry N [1]: 2
- stoichiometry N [2]: 2 PEPD per 2 ErbB2 (heterotetramer) and 2 PEPD per 1 ErbB2 (heterotrimer)
- fold reduction of binding affinity against wild-type ErbB2 [3]: 3.5 fold
- fold reduction of binding affinity against wild-type ErbB2 [4]: 51 fold
- Kd [5]: 7.3 nM

B2: G278D-PEPD (human PEPD, G→D at amino acid no. 278) (enzyme)
chain: MAAATGPSFWLGNETLKVPLALFALNRQRLCERLRKNPAVQAGSIVVLQGGEETQRYCTDTGVLFRQESFFHWAFGVTEPGCYGVIDVDTGKSTLFVPRLPASHATWMGKIHSKEHFKEKYAVDDVQYVDEIASVLTSQKPSVLLTLRGVNTDSGSVCREASFDGISKFEVNNTILHPEIVECRVFKTDMELEVLRYTNKISSEAHREVMKAVKVGMKEYELESLFEHYCYSRGGMRHSSYTCICGSGENSAVLHYGHAGAPNDRTIQNGDMCLFDMDGEYYCFASDITCSFPANGKFTADQKAVYEAVLRSSRAVMGAMKPGVWWPDMHRLADRIHLEELAHMGILSGSVDAMVQAHLGAVFMPHGLGHFLGIDVHDVGGYPEGVERIDEPGLRSLRTARHLQPGMVLTVEPGIYFIDHLLDEALADPARASFLNREVLQRFRGFGGVRIEEDVVVTDSGIELLTCVPRTVEEIEACMAGCDKAFTPFSGPK
- stoichiometry N [1]: 2
